Values quoted from earlier work, collected in patent US20250034272A1, “COMPOSITIONS AND METHODS FOR TREATING SEVERE ASTHMA” (Equillium, Inc., priority 2018, published 2025).

Test system: Th1/Th17 type T cells
Conditions: stated as known ability

B1: EQ001: humanized anti-CD6 monoclonal antibody, VH/VK SEQ ID NOS: 1 and 2; itolizumab produced in CHO cells (antibody, V domains shown)
VH: EVQLVESGGGLVKPGGSLKLSCAASGFKFSRYAMSWVRQAPGKRLEWVATISSGGSYIYYPDSVKGRFTISRDNVKNTLYLQMSSLRSEDTAMYYCARRDYDLDYFDSWGQGTLVTVSS
VL: DIQMTQSPSSLSASVGDRVTITCKASRDIRSYLTWYQQKPGKAPKTLIYYATSLADGVPSRFSGSGSGQDYSLTISSLESDDTATYYCLQHGESPFTLGSGTKLEIK
modifications: humanized T1h VH sequence; humanized T1h VL sequence
notes: itolizumab produced in CHO cells
inhibition of activation and migration of Th1/Th17 type T cells: inhibit activation and migration
